The values that follow are results of earlier work, collected in PMC3100173.

For orientation: Kd means the constant that tells how readily two partners part at equilibrium.

The target in the data set is OmpF (Escherichia coli) (UniProt P02931).
Sequence of UniProt P02931 (P02931 23-362): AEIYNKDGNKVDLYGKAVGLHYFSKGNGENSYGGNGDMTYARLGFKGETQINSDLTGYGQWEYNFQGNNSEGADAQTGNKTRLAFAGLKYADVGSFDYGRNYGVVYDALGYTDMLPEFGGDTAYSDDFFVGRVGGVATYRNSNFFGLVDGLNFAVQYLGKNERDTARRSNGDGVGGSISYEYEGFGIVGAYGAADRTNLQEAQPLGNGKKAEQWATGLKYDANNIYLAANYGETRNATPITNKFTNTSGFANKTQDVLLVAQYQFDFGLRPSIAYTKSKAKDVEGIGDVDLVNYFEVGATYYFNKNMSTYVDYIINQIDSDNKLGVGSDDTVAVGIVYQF

On to Colicin N (from UniProt P08083), for which the Kd was 200 µM.
